In IntAct's records for PubMed 22665060:

B1: Tight junction protein 2 (Homo sapiens), Q9UDY2-3 (parent)
chain: MEELIWEQYTVTLQKDSKRGFGIAVSGGRDNPHFENGETSIVISDVLPGGPADGLLQENDRVVMVNGTPMEDVLHSFAVQQLRKSGKVAAIVVKRPRKVQVAALQASPPLDQDDRAFEVMDEFDGRSFRSGYSERSRLNSHGGRSRSWEDSPERGRPHERARSRERDLSRDRSRGRSLERGLDQDHARTRDRSRGRSLERGLDHDFGPSRDRDRDRSRGRSIDQDYERAYHRAYDPDYERAYSPEYRRGARHDARSRGPRSRSREHPHSRSPSPEPRGRPGPIGVLLMKSRANEEYGLRLGSQIFVKEMTRTGLATKDGNLHEGDIILKINGTVTENMSLTDARKLIEKSRGKLQLVVLRDSQQTLINIPSLNDSDSEIEDISEIESNRSFSPEERRHQYSDYDYHSSSEKLKERPSSREDTPSRLSRMGATPTPFKSTGDIAGTVVPETNKEPRYQEDPPAPQPKAAPRTFLRPSPEDEAIYGPNTKMVRFKKGDSVGLRLAGGNDVGIFVAGIQEGTSAEQEGLQEGDQILKVNTQDFRGLVREDAVLYLLEIPKGEMVTILAQSRADVYRDILACGRGDSFFIRSHFECEKETPQSLAFTRGEVFRVVDTLYDGKLGNWLAVRIGNELEKGLIPNKSRAEQMASVQNAQRDNAGDRADFWRMRGQRSGVKKNLRKSREDLTAVVSVSTKFPAYERVLLREAGFKRPVVLFGPIADIAMEKLANELPDWFQTAKTEPKDAGSEKSTGVVRLNTVRQIIEQDKHALLDVTPKAVDLLNYTQWFPIVIFFNPDSRQGVKTMRQRLNPTSNKSSRKLFDQANKLKKTCAHLFTATINLNSANDSWFGSLKDTIQHQQGEAVWVSEGKMEGMDDDPEDRMSYLTAMGADYLSCDSRLISDFEDTDGEGGAYTDNELDEPAEEPLVSSITRSSEPVQHEESIRKPSPEPRAQMRRAASSDQLRDNSPPPAFKPEPPKAKTQNKEESYDFSKSYEYKSNPSAVAGNETPGASTKGYPPPVAAKPTFGRSILKPSTPIPPQEGEEVGESSEEQDNAPKSVLGKVKIFEKMDHKARLQRMQELQEAQNARIEIAQKHPDIYAVPIKTHKPDPGTPQHTSSRPPEPQKAPSRPYQDTRGSYGSDAEEEEYRQQLSEHSKRGYYGQSARYRDTEL
partner: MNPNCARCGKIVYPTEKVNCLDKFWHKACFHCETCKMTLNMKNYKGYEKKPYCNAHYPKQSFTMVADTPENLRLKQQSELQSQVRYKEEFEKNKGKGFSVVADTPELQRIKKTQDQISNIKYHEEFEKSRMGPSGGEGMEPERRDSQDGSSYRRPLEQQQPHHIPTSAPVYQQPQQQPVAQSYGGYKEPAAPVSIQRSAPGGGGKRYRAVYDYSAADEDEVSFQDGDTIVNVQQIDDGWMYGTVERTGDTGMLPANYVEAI

Variants of: B1
Conditions: with lasp1_human LASP1, Q14847

Variant | effect of a mutation on the interaction
P1106A | decreasing interaction
P1106A;P1116A | disrupting interaction strength
